Measured values from publication PMC5951399.

Biological target: frataxin, mature form (FXN^81–210) (human) (UniProt Q16595)
Test: ITC

frataxin, mature form (FXN^81–210) (human), sequence (Q16595 81-210): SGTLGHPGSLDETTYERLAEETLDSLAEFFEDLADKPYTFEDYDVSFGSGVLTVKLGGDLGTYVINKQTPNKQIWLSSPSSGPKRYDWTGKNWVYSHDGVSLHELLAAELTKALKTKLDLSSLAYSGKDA
[NFS1]2:[ISD11]2:[Acp]2:[ISCU]2 complex, sequence (Q9H1K1 whole entry, looked up): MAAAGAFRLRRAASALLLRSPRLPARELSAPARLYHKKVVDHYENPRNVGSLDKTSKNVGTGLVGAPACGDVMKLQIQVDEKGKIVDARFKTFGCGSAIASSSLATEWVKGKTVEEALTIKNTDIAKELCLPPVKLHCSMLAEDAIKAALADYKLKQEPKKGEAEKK
[NFS1]2:[ISD11]2:[Acp]2:[ISCU]2 complex, sequence (P0A6A8 whole entry, looked up): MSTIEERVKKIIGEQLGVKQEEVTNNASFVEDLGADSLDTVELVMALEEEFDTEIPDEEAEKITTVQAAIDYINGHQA
[NFS1]2:[ISD11]2:[Acp]2:[ISCU]2 complex, sequence (Q9HD34 whole entry, looked up): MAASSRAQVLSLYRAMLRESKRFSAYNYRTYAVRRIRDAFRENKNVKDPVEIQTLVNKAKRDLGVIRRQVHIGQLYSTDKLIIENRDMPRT
cysteine desulfurase complex [NFS1]2:[ISD11]2:[Acp]2, sequence (P0A6A8 whole entry, looked up): as the sequence (P0A6A8 whole entry, looked up) above
cysteine desulfurase complex [NFS1]2:[ISD11]2:[Acp]2, sequence (Q9HD34 whole entry, looked up): as the sequence (Q9HD34 whole entry, looked up) above

Substance	Kd
[NFS1]2:[ISD11]2:[Acp]2:[ISCU]2 complex (from UniProt Q9HD34 1-91; P0A6A8 1-78; Q9H1K1-1 35-167)	3 µM
cysteine desulfurase complex [NFS1]2:[ISD11]2:[Acp]2 (from UniProt Q9HD34 1-91; P0A6A8 1-78)	26.2 µM
